Measured values published in US20090324700A1, “METHODS AND COMPOSITIONS FOR THE INHIBITION OF CATHEPSINS” (priority 2003, published 2009).

Assays:
caspase 9 = target: T1, caspase 9 (Homo sapiens, UniProt P55211); assay: Protease specificity of Spi2A: caspase 9; format: biochemical; settings: FIG. 6B
T1 construct: purchased Calbiochem or Athens Research and Technology
T1 sequence (P55211 1-315 limits assumed): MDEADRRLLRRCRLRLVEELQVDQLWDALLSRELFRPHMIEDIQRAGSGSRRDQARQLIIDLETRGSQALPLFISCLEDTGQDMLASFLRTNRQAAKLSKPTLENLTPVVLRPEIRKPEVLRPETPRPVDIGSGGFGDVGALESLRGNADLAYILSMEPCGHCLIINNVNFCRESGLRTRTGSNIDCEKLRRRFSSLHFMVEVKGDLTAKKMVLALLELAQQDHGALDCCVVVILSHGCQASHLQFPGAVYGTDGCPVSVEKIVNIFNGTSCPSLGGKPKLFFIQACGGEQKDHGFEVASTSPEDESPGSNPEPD
T1 sequence (P55211 331-416 limits assumed): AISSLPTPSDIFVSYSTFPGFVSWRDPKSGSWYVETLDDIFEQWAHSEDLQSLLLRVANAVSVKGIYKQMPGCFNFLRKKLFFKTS
Protocol: Protease specificity of Spi2A. RelA^−/− MEFs were transduced with retrovirus encoding Spi2A with a C-terminal 3×FLAG epitope tag and Spi2A-3×FLAG purified using a method described previously (Cooley et al., 1998). Briefly, cells (3×10^9) were lysed and Spi2A-3×FLAG (75 μg) purified by batch Q-Fast Flow ion-exchange chromatography (Pharmacia Biotech) after elution at 160-220 mM NaCl followed by anti-FLAG antibody columns, performed according to manufacturer's instructions (Sigma-Aldrich). Spi2A-3×FLAG was dialysed into PBS and stored as aliquots at −80° C. until needed.
Proteases were purchases from the manufacturers (Calbiochem or Athens Research and Technology) except granzymes A and B which were purified as described (Hanna et al., 1993) and cathespin V and K, which were purified as described (Bromme et al., 1999; Linnevers et al., 1997). Proteases (20 nM) were incubated in the appropriate assay buffer with Spi2A at 200 nM (at least 10-fold excess of inhibitor to maintain pseudo-first order conditions) for 1 h at 37° C. Control samples included only the enzyme, without the inhibitor. At the end of 1 h protease activity was assayed. […] Substrate hydrolysis was measured in a fluorescence microtiter plate reader (Spectramax Gemini XS, Molecular Devices). Percentage inhibition was calculated from the residual enzyme activity compared to no Spi2A controls. […]

RelA^−/− MEFs = assay: Survival assay, sphingosine, RelA^−/− MEFs; format: cell-based, mouse; settings: sphingosine 10-50 μM, 2 h; FIG. 7B
Protocol: Survival Assays. Although RelA^−/− MEFs are markedly more sensitive to TNF-α compared to RelA^+/+ MEFs, low levels of CHX (0.1 μg/ml) were used in the survival assays. This was to suppress any protective activity of constitutively active non-RelA NF-κB molecules that are present in RelA^−/− MEFs (FIG. 4). Thus, RelA^−/− MEFs were treated with CHX and TNF-α (R&D) and the number of live GFP-positive adherent cells was counted by flow cytometry after 16 h, if not indicated otherwise. Live cells were defined as those that excluded propidium iodide (PI-negative) and had the appropriate size, as defined by forward and side scatter characteristics (Coligan et al., 1995). For RelA^+/+ MEFs, TNF-α-cytotoxicity was determined after 16 h with CHX (10 μg/ml), if not indicated otherwise. Cathepsin B activity was inhibited by a 1 h pre-treatment of MEFs with CA-074 Me (30 μM) (Peptide Institute). […] RelA^−/− MEFs were treated with (10-50 μM) sphingosine (Calbiochem) and the number of live GFP-positive adherent cells was counted by flow cytometry after 2 h.

B1: Spi2A: murine Spi2A polypeptide, SEQ ID NO:2; purified as C-terminal 3×FLAG protein or expressed from MIGR1 retrovirus in cells and bone-marrow chimeras (protein, listed as Mus musculus)
chain: MAGVSPAVFGCPDVTLGRNTAVREVQENVTSVDSLTLVSSNTDFAFSLYRKLVLKNPDENVVFSPFSICTALALLSLGAKSNTLKEILEGLKFNLTETPEPDIHQGFRYLLDLLSQPGNQVQISTGSALFIEKHLQILAEFKEKARALYQAEAFTADFQQPLKATKLINDYVSNHTQGKIKELISGLKESTLMVLVNYIYFKGKWKNPFDPNDTFKSEFYLDEKRSVIVSMMKTGYLTTPYFRDEELSCTVVELKYTGNASAMFILPDQGRMQQVEASLQPETLRKWKNSLKPRMIHELRLPKFSISTDYSLEHILPELGIREVFSTHADLSAITGTKDLRVSQVVHKAVLDVAEKGTEAAAATGMAGVGCCAVFDFLEIFFNRPFLMIISDTKAHIALFMAKVTNPERSTNFPNGEGASSQRLESKRLCFGDPLCLIGQ
modifications: C-terminal 3xFLAG tag
notes: purified as C-terminal 3×FLAG protein or expressed from MIGR1 retrovirus in cells and bone-marrow chimeras
**Q.** For B1, which “Inhibition of protease by Spi2A (percentage inhibition)” value (caspase 9) is on record?
**A.** did not extend to any of the caspases tested

**Q.** What about the “Protection from death after treatment with sphingosine” value (RelA^−/− MEFs) of the same molecule?
**A.** could protect
